In the test the target is ForT, recombinant wild type. The experiment in a line: SEC-MALS. On the technique in general: SEC sorts molecules by how far they enter the pores of the column.

With ForT, recombinant wild type (enzyme), the stoichiometry N (as a rule, the number of molecules, sites or subunits per partner or assembly) is 2.

Source of the values: doi:10.1101/2020.03.26.009662.
